{
  "source": "paper doi:10.1101/546648",
  "target": "OrnVc (oligoribonuclease) (Vibrio cholerae O1 El Tor?) (UniProt Q9KV17)",
  "assay": "DRaCALA",
  "settings": "5' phosphate",
  "data": [
    {"substance": "pGpG (GG, 2-mer)", "values": [
      {"measurement": "Kd", "value": 90, "unit": "nM"}
    ]}
  ]
}
